Experimental data published in patent publication US20230183353A1 (ZYDUS LIFESCIENCES, published 2023).
Substitutions are numbered along the chain they refer to. Names and notes keep the numbering of the source.

B1: Fc variant F3-9 (SEQ ID No. 20; L432M/H433P/N434F) (other)
chain: DKTHTCPPCPAPELLGGPSVFLFPPKPKDTLMISRTPEVTCVVVDVSHEDPEVKFNWYVDGVEVHNAKTKPREEQYNSTYRVVSVLTVLHQDWLNGKEYKCKVSNKALPAPIEKTISKAKGQPREPQVYTLPPSRDELTKNQVSLTCLVKGFYPSDIAVEWESNGQPENNYKTTPPVLDSDGSFFLYSKLTVDKSRWQQGNVFSCSVMHEAMPFHYTQKSLSLSPGK
B2: Fc variant H11+A4 (SEQ ID No. 22; T307N/V308P/L309Y/H433R/N434W), Fc monomer (other)
chain: B1 chain with T87N, V88P, L89Y, M212L, P213R, F214W
notes: also called 22b

Experiments:
[1] = target: T1, recombinant human neonatal Fc receptor (rhFcRn) (human, UniProt P55899 24-297; P61769 21-119); test: SPR (ProteOn XPR36), rhFcRn immobilised on GLC chip, pH 6.0, 25 C
T1 construct: Bought recombinant protein (Sino Biologics), immobilised on a GLC chip; also called Human FcRn; FcRn/FcGRT
T1 sequence (P55899 24-297 limits assumed, chain 1 of 2): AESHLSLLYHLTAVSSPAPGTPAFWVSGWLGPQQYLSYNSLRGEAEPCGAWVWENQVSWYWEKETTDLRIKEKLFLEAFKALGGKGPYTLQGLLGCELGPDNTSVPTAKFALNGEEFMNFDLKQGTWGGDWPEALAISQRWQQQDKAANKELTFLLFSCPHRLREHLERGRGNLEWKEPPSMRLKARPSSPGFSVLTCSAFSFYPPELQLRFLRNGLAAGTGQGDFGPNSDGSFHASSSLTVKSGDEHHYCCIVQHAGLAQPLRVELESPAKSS
T1 sequence (P61769 21-119 limits assumed, chain 2 of 2): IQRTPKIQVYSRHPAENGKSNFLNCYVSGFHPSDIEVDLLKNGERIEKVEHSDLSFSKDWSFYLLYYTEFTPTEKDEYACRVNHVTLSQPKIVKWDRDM
Experimental: The kinetic constants for the binding of Fc variants to recombinant human neonatal Fc receptor (rhFcRn) were determined by Surface Plasmon Resonance-based measurement using the ProteOn™ XPR36 (Bio-Rad). The rhFcRn receptor (Sino Biologics) was immobilized on a GLC chip following manufacturer's instruction. 10 mM phosphate buffer saline (PBS) (10 mM phosphate buffer, pH 6.0, 150 mM NaCl, with 0.005% Tweet 20) was used as running buffer to carry out the kinetic measurements. […] Reactions were carried in PBS (pH 6.0, 0.005% surfactant P20) at 25° C. After each sample run, the chip surface was regenerated using two pulses of PBS (0.005% surfactant P20), pH 7.4, followed by one pulse of glycine buffer pH 1.5. The data, in the form of sensograms, was analysed using the data-fitting programs in the ProteOn™ system.

[2] = target: recombinant monkey FcRn (monkey); test: SPR (ProteOn XPR36), FcRn immobilised on GLC chip by amine coupling, pH 6.0, 25 C
recombinant monkey FcRn (monkey), sequence (Q8SPV9 24-297, chain 1 of 2): as the sequence (P55899 24-297 limits assumed, chain 1 of 2) above, with N39D, E44Q, G99S, S189G, S190N, L217M, S269T counted along it
recombinant monkey FcRn (monkey), sequence (Q8SPW0 21-119, chain 2 of 2, further chain): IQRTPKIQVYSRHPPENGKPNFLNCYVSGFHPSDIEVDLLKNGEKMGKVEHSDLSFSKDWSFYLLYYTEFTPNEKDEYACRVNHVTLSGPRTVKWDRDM
Experimental: (§1) In this experiment, binding of the Fc variant of the current invention to FcRn of different species was determined by surface plasmon resonance-based measurement using the ProteOn™ XPR36 (Bio-Rad). […] Fc variant used to conduct this experiment was produced using CHO cell as an expression system. FcRn (of different species) was immobilized on a GLC sensor chip surface using a standard amine coupling chemistry, and essentially, following the manufacturers' instruction. 10 mM phosphate buffered saline (PBS) (10 mM phosphate buffer, pH 6.0, 150 mM NaCl, 0.005% Tween 20) was used as the running buffer to carry out the kinetic measurements. To measure the association rate constant (kassoc) and dissociation rate constant (kdissoc), five dilutions of Fc muteins were prepared in above mentioned running buffer and injected at a flow rate of 100 μL/min with an association time of 180 s and dissociation time of 600 s. All the reactions were carried at 25° C. After each sample run, the chip surface was regenerated using PBST, pH 7.4. The data, in the form of sensorgrams, was analyzed using the data-fitting programs in the ProteOn™ system.

[3] = target: T1, recombinant human neonatal Fc receptor …; test: as above
Experimental: as §1

[4] = target: recombinant mouse FcRn (mouse, UniProt Q61559 22-297); test: as above
recombinant mouse FcRn, sequence (Q61559 22-297): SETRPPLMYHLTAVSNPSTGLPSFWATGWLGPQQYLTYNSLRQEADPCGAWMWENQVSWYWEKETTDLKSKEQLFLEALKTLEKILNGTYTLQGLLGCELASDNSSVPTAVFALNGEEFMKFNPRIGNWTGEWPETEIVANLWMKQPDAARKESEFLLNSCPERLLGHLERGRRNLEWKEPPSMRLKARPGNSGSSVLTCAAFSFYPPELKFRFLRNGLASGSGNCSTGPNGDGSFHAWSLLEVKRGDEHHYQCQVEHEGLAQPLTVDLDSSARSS
Experimental: as §1

[5] = target: T2, recombinant human FcγRIIIa (Phe) (human, UniProt P08637 17-208, limits assumed); test: SPR (ProteOn), receptor immobilised on GLC chip by amine coupling, pH 7.4, 25 C
T2 construct: Directly immobilised on a GLC chip by amine coupling; also called FcγRIIIa F158; CD16a
T2 sequence (P08637 17-208 limits assumed): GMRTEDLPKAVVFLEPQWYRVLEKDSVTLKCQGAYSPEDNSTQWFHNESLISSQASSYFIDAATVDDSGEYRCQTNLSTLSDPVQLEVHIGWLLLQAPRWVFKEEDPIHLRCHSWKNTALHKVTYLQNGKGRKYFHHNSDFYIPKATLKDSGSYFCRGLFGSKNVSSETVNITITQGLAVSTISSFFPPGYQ
Experimental: (§2) In this experiment, the kinetic constants for the binding of Fc variant to recombinant Fc gamma receptors were determined by Surface Plasmon Resonance-based measurement using the ProteOn™ […] (Bio-Rad). […] All the recombinant human Fc receptors were directly immobilized on a GLC sensor chip surface using a standard amine coupling chemistry, and essentially, following the manufacturers' instruction. 10 mM phosphate buffered saline (PBS) (10 mM phosphate buffer, pH 7.4, 150 mM NaCl, with 0.005% Tween 20) was used as the running buffer to carry out the kinetic measurements for all the Fc receptor. To measure the association rate constant (kassoc) and dissociation rate constant (kdissoc), five dilutions of Fc variants were prepared in above mentioned running buffer and injected at a flow rate of 50 μL/min. Association time and dissociation time at each interaction is mentioned in table below. All the reactions were performed at 25° C. The data, in the form of sensorgrams, were analyzed using the data-fitting programs available with the ProteOn™ system.

[6] = target: T3, recombinant human FcγRIIIa (Val) (human, UniProt P08637 17-208, limits assumed); test: as above
T3 construct: Directly immobilised on a GLC chip by amine coupling; also called FcγRIIIa V158; CD16a
T3 sequence (P08637 17-208 F176V limits assumed): as the sequence (P08637 17-208 limits assumed) above, with F160V counted along it
Experimental: as §2

Binder	Kd [1]	Kd [2]	Kd [3]	Kd [4]	Kd [5]	Kd [6]
B1	3630 pM					
B2	288 pM	801 pM	791 pM	615 pM	241000 pM	205000 pM
